Consider four sequences from US20180119119.

Holding throughout (experiment): cell_activity
The test system of data set [1] is ExoS54-FLAG-TALEN2 (gfp/Venus right TALEN) (Artificial). Particulars: paired with TALEN1; T3SS protein injection into EB5 mESC, MOI 100, 3 h; about 30% at MOI 400; indels confirmed by sequencing.
The subject of data set [2] is ExoS54-FLAG-HPRT1-T2 (HPRT1 right TALEN) (Artificial). To be noted: paired with HPRT1-T1; human iPSC, MOI 100, 3 h, after 6TG selection, no template; overall mutation efficiency about 1%.
The subject of data set [3] is ExoS54-FLAG-HPRT1-T1 (HPRT1 left TALEN) (Artificial). To be noted: paired with HPRT1-T2; human iPSC, MOI 100, 3 h, after 6TG selection, no template; overall mutation efficiency about 1%.
In data set [4] the test system is ExoS54-FLAG-TALEN1 (gfp/Venus left TALEN) (Artificial). To be noted: paired with TALEN2; T3SS protein injection into EB5 mESC, MOI 100, 3 h; about 30% at MOI 400; indels confirmed by sequencing.

In data set [1], “CTGGACGGCGACGTAAA (double strand) [gfp TALEN right half-site (top strand)]” displayed an activity (% GFP-negative cells) of 20.
“GATGGGAGGCCATCACATTGT (double strand) [HPRT1 exon 2 TALEN right half-site (top strand)]” came in with an activity (% DNA lost XhoI site) in data set [2] of 20.
In turn, “GTAGGACTGAACGTCTTGCTC (double strand) [HPRT1 exon 2 TALEN left half-site]” returned an activity (% DNA lost XhoI site) in data set [3] of 20.
“TTCACCGGGGTGGTGCC (double strand) [gfp TALEN left half-site]”: the activity (% GFP-negative cells) in data set [4] was found to be 20.
